From patent US5843460

Target: H. pylori urease (UreA and UreB subunits) expressed in E. coli from the urease gene cluster of pILL763 or pILL753 (Helicobacter pylori)

Row | Substance | urease activity (Berthelot reaction) of E. coli co-expressing the urease gene cluster and HspA plus HspB [fold]
1 | H. pylori HspB heat shock protein (GroEL-like) | 3
2 | H. pylori HspA heat shock protein (GroES-like) | 3
